This note sets out measurements from patent US20060280804A1.

In the assay the target is angiotensin converting enzyme (ACE, EC 3.4.15.1, Sigma). Nature of the assay: cell-based or functional assay.

As for “ovalbumin grade VI (99% purity, Sigma), unhydrolysed (from UniProt P01012 2-386)”, the ACEI activity, IC50 is above 750 µg/mL.
